Test results: publication PMC9352680, “A comprehensive thermodynamic model for RNA binding by the Saccharomyces cerevisiae Pumilio protein PUF4”

T1: PUF4 RNA-binding domain (Saccharomyces cerevisiae, UniProt P25339 537-888)
T1 sequence: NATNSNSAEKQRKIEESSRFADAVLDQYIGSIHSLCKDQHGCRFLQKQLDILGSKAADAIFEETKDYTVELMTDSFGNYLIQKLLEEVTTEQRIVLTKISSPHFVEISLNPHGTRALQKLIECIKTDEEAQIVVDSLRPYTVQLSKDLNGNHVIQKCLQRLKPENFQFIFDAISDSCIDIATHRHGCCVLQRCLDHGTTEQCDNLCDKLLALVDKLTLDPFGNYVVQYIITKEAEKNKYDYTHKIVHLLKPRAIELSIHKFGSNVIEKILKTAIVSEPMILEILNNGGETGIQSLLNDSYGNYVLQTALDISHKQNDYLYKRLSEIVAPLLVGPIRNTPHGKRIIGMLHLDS


Target: T1, PUF4 RNA-binding domain
Test: Mg; RNA-MaP; 20 mM Na-HEPES pH 7.4, 30 mM KOAc, 0.75 mM MgCl2, 0.1% Tween-20, 5% glycerol, 0.1 mg/mL BSA, 2 mM DTT; 25 C; 0.0125-409.6 nM protein
Conditions: tags: N-His6-TEV cleaved; C-SNAP kept, Cy3B-labelled; label: tethered on chip by stalled RNA polymerase

Binder | Kd [nM]
UCUCUUUGUAUGUCACUCUCUU (ssRNA) [Ic_S1_P5E.1_K5.1_C5.1_H5.1_A5.1_[T6G]_[A7T]_F5.1_[T8C]_[T9A]_[A10C]_T5.1] | 132
UCUCUUUGUAUGUGUCUCUU (ssRNA) [Ic_S1_P3E.1_K3.1_C3.1_H3.1_A3.1_[A6G]_F3.1_[A8G]_T3.1] | 472
UCUCUUUGUAUAUGACUCUCUU (ssRNA) [Ic_S1_P5E.1_K5.1_C5.1_H5.1_A5.1_[T6A]_[A7T]_F5.1_[T8G]_[T9A]_[A10C]_T5.1] | 16.1
UCUCUUUGUACAGUCUUCUCUU (ssRNA) [Ic_S1_P5E.1_K5.1_C5.1_H5.1_A5.1_[T5C]_[T6A]_[A7G]_F5.1_[T9C]_[A10T]_T5.1] | 22.9
UCUCUUUGUAUAAGCCUCUCUU (ssRNA) [Ic_S1_P5E.1_K5.1_C5.1_H5.1_A5.1_[T6A]_F5.1_[T8G]_[T9C]_[A10C]_T5.1] | 794
UCUCUUUGUAUUCCCUUCUCUU (ssRNA) [Ic_S1_P5E.1_K5.1_C5.1_H5.1_A5.1_[A7C]_F5.1_[T8C]_[T9C]_[A10T]_T5.1] | 653
UCUCUUUGUACAUUAAUCUCUU (ssRNA) [Ic_S1_P5E.1_K5.1_C5.1_H5.1_A5.1_[T5C]_[T6A]_[A7T]_F5.1_[T9A]_T5.1] | 0.904
UCUCUUUGUAAGUUCUUCUCUU (ssRNA) [Ic_S1_P5E.1_K5.1_C5.1_H5.1_A5.1_[T5A]_[T6G]_[A7T]_F5.1_[T9C]_[A10T]_T5.1] | 388
UCUCUUUGUACUCAGCUCUCUU (ssRNA) [Ic_S1_P5E.1_K5.1_C5.1_H5.1_A5.1_[T5C]_[A7C]_F5.1_[T8A]_[T9G]_[A10C]_T5.1] | 945
UCUCUUUGUAAUCCCAUCUCUU (ssRNA) [Ic_S1_P5E.1_K5.1_C5.1_H5.1_A5.1_[T5A]_[A7C]_F5.1_[T8C]_[T9C]_T5.1] | 868
UCUCUUUGUACCUUUUUCUCUU (ssRNA) [Ic_S1_P5E.1_K5.1_C5.1_H5.1_A5.1_[T5C]_[T6C]_[A7T]_F5.1_[A10T]_T5.1] | 26.7
UCUCUUUGUAAUCACGUCUCUU (ssRNA) [Ic_S1_P5E.1_K5.1_C5.1_H5.1_A5.1_[T5A]_[A7C]_F5.1_[T8A]_[T9C]_[A10G]_T5.1] | 1250
UCUCUUUGUACUCUCGUCUCUU (ssRNA) [Ic_S1_P5E.1_K5.1_C5.1_H5.1_A5.1_[T5C]_[A7C]_F5.1_[T9C]_[A10G]_T5.1] | 70.5
UCUCUUUGUAAAUUUCUCUU (ssRNA) [Ic_S1_P3E.1_K3.1_C3.1_H3.1_A3.1_[T5A]_F3.1_[A8T]_T3.1] | 16.9
UCUCUUUGUACCCAACUCUCUU (ssRNA) [Ic_S1_P5E.1_K5.1_C5.1_H5.1_A5.1_[T5C]_[T6C]_[A7C]_F5.1_[T8A]_[T9A]_[A10C]_T5.1] | 836
UCUCUUUGUAUAUCGCUCUCUU (ssRNA) [Ic_S1_P5E.1_K5.1_C5.1_H5.1_A5.1_[T6A]_[A7T]_F5.1_[T8C]_[T9G]_[A10C]_T5.1] | 27.4
UCUCUUUGUACUGUCAUCUCUU (ssRNA) [Ic_S1_P5E.1_K5.1_C5.1_H5.1_A5.1_[T5C]_[A7G]_F5.1_[T9C]_T5.1] | 116
UCUCUUUGUAUCAGUGUCUCUU (ssRNA) [Ic_S1_P5E.1_K5.1_C5.1_H5.1_A5.1_[T6C]_F5.1_[T8G]_[A10G]_T5.1] | 441
UCUCUUUGUAUAUGAUCUCUU (ssRNA) [Ic_S1_P4E.1_K4.1_C4.1_H4.1_A4.1_F4.1_[T8G]_T4.1] | 15.4
UCUCUUUGUAAUACUCUCUCUU (ssRNA) [Ic_S1_P5E.1_K5.1_C5.1_H5.1_A5.1_[T5A]_F5.1_[T8C]_[A10C]_T5.1] | 642
UCUCUUUGUAACCCCAUCUCUU (ssRNA) [Ic_S1_P5E.1_K5.1_C5.1_H5.1_A5.1_[T5A]_[T6C]_[A7C]_F5.1_[T8C]_[T9C]_T5.1] | 1280
UCUCUUUGUAUUUGUCUCUU (ssRNA) [Ic_S1_P3E.1_K3.1_C3.1_H3.1_A3.1_[A6T]_F3.1_[A8G]_T3.1] | 106
UCUCUUUGUAGCCCUUUCUCUU (ssRNA) [Ic_S1_P5E.1_K5.1_C5.1_H5.1_A5.1_[T5G]_[T6C]_[A7C]_F5.1_[T8C]_[A10T]_T5.1] | > 2300
UCUCUUUGUAAAUAAUUCUCUU (ssRNA) [Ic_S1_P5E.1_K5.1_C5.1_H5.1_A5.1_[T5A]_[T6A]_[A7T]_F5.1_[T8A]_[T9A]_[A10T]_T5.1] | 30.5
UCUCUUUGUAUACCGUUCUCUU (ssRNA) [Ic_S1_P5E.1_K5.1_C5.1_H5.1_A5.1_[T6A]_[A7C]_F5.1_[T8C]_[T9G]_[A10T]_T5.1] | 334

Binder | Kd [nM]
UCUCUUUGUAUCCCGGUCUCUU (ssRNA) [Ic_S1_P5E.1_K5.1_C5.1_H5.1_A5.1_[T6C]_[A7C]_F5.1_[T8C]_[T9G]_[A10G]_T5.1] | > 2300
UCUCUUUGUAGUUUCCUCUCUU (ssRNA) [Ic_S1_P5E.1_K5.1_C5.1_H5.1_A5.1_[T5G]_[A7T]_F5.1_[T9C]_[A10C]_T5.1] | 479
UCUCUUUGUAACACGGUCUCUU (ssRNA) [Ic_S1_P5E.1_K5.1_C5.1_H5.1_A5.1_[T5A]_[T6C]_F5.1_[T8C]_[T9G]_[A10G]_T5.1] | 2070
UCUCUUUGUACGUCCCUCUCUU (ssRNA) [Ic_S1_P5E.1_K5.1_C5.1_H5.1_A5.1_[T5C]_[T6G]_[A7T]_F5.1_[T8C]_[T9C]_[A10C]_T5.1] | 394
UCUCUUUGUACGGUAAUCUCUU (ssRNA) [Ic_S1_P5E.1_K5.1_C5.1_H5.1_A5.1_[T5C]_[T6G]_[A7G]_F5.1_[T9A]_T5.1] | 16.8
UCUCUUUGUACGUCUUUCUCUU (ssRNA) [Ic_S1_P5E.1_K5.1_C5.1_H5.1_A5.1_[T5C]_[T6G]_[A7T]_F5.1_[T8C]_[A10T]_T5.1] | 425
UCUCUUUGUAUUACAUUCUCUU (ssRNA) [Ic_S1_P5E.1_K5.1_C5.1_H5.1_A5.1_F5.1_[T8C]_[T9A]_[A10T]_T5.1] | 121
UCUCUUUGUAGCACUGUCUCUU (ssRNA) [Ic_S1_P5E.1_K5.1_C5.1_H5.1_A5.1_[T5G]_[T6C]_F5.1_[T8C]_[A10G]_T5.1] | > 2300
UCUCUUUGUAUCGGUAUCUCUU (ssRNA) [Ic_S1_P5E.1_K5.1_C5.1_H5.1_A5.1_[T6C]_[A7G]_F5.1_[T8G]_T5.1] | 43.9
UCUCUUUGUACCGACCUCUCUU (ssRNA) [Ic_S1_P5E.1_K5.1_C5.1_H5.1_A5.1_[T5C]_[T6C]_[A7G]_F5.1_[T8A]_[T9C]_[A10C]_T5.1] | > 2300
UCUCUUUGUAUCAAUUUCUCUU (ssRNA) [Ic_S1_P5E.1_K5.1_C5.1_H5.1_A5.1_[T6C]_F5.1_[T8A]_[A10T]_T5.1] | 85.2
UCUCUUUGUAUAUAGUUCUCUU (ssRNA) [Ic_S1_P5E.1_K5.1_C5.1_H5.1_A5.1_[T6A]_[A7T]_F5.1_[T8A]_[T9G]_[A10T]_T5.1] | 4.66
UCUCUUUGUAUCACAUUCUCUU (ssRNA) [Ic_S1_P5E.1_K5.1_C5.1_H5.1_A5.1_[T6C]_F5.1_[T8C]_[T9A]_[A10T]_T5.1] | 106
UCUCUUUGUAACUCCAUCUCUU (ssRNA) [Ic_S1_P5E.1_K5.1_C5.1_H5.1_A5.1_[T5A]_[T6C]_[A7T]_F5.1_[T8C]_[T9C]_T5.1] | 616
UCUCUUUGUACAUAUUUCUCUU (ssRNA) [Ic_S1_P5E.1_K5.1_C5.1_H5.1_A5.1_[T5C]_[T6A]_[A7T]_F5.1_[T8A]_[A10T]_T5.1] | 5.5
UCUCUUUGUACUAUACUCUCUU (ssRNA) [Ic_S1_P5E.1_K5.1_C5.1_H5.1_A5.1_[T5C]_F5.1_[T9A]_[A10C]_T5.1] | 2.18
UCUCUUUGUACAUUUCUCUU (ssRNA) [Ic_S1_P3E.1_K3.1_C3.1_H3.1_A3.1_[T5C]_F3.1_[A8T]_T3.1] | 5.42
UCUCUUUGUAUCUGUCUCUU (ssRNA) [Ib_S1_P3E.1_K3.1_C3.1_H3.1_A3.1_[A6C]_F3.1_[A8G]_T3.1] | 81.8
UCUCUUUGUACGAUCAUCUCUU (ssRNA) [Ic_S1_P5E.1_K5.1_C5.1_H5.1_A5.1_[T5C]_[T6G]_F5.1_[T9C]_T5.1] | 88.9
UCUCUUUGUAGCAUUGUCUCUU (ssRNA) [Ic_S1_P5E.1_K5.1_C5.1_H5.1_A5.1_[T5G]_[T6C]_F5.1_[A10G]_T5.1] | 771
UCUCUUUGUAAUCACCUCUCUU (ssRNA) [Ic_S1_P5E.1_K5.1_C5.1_H5.1_A5.1_[T5A]_[A7C]_F5.1_[T8A]_[T9C]_[A10C]_T5.1] | 1200
UCUCUUUGUACAUGUGUCUCUU (ssRNA) [Ic_S1_P5E.1_K5.1_C5.1_H5.1_A5.1_[T5C]_[T6A]_[A7T]_F5.1_[T8G]_[A10G]_T5.1] | 27.2
UCUCUUUGUACCUAACUCUCUU (ssRNA) [Ic_S1_P5E.1_K5.1_C5.1_H5.1_A5.1_[T5C]_[T6C]_[A7T]_F5.1_[T8A]_[T9A]_[A10C]_T5.1] | 65.6
UCUCUUUGUAUUUCCAUCUCUU (ssRNA) [Ic_S1_P5E.1_K5.1_C5.1_H5.1_A5.1_[A7T]_F5.1_[T8C]_[T9C]_T5.1] | 363
UCUCUUUGUACUAAAAUCUCUU (ssRNA) [Ic_S1_P5E.1_K5.1_C5.1_H5.1_A5.1_[T5C]_F5.1_[T8A]_[T9A]_T5.1] | 58.8
